Consider one molecule from paper PMC12531337.

In this series the target is T1, ZEB2 ZnF8 peptide (UniProt O60315 1055-1076).
T1 chain: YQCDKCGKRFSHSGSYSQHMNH
The experiment in a line: NMR.

B1: ZnF-binding DNA (E2 box) (dsDNA)
DNA 1: GTAATCTGGGCCACCTGCCTGGGAGGA
DNA 2: TCCTCCCAGGCAGGTGGCCCAGATTAC
Consider B1, for which the binding result is reported as “binds”.
